Reference: PMC4835091

Legend:
[1] = biological target: T1, ZapD (purified), P36680; assay: co-sedimentation assay, SDS-PAGE quantification; conditions: chain shown with the change, 50 mM K-MOPS pH 6.5, 50 mM KCl, 2.5 mM MgCl2, 1 mM GTP, 3 µM BSA, read off a plot
T1 chain: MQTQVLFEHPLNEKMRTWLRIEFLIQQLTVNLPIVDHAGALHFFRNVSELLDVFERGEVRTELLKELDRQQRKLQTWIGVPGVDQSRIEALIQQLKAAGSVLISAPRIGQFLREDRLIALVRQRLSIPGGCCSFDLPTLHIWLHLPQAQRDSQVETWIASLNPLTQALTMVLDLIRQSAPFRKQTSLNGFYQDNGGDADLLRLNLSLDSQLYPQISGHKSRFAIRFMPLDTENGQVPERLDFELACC

[2] = biological target: T2, FtsZ(NRNKRG) (purified), P0A9A6; assay: sedimentation (co-pelleting) assay, SDS-PAGE quantification; conditions: chain shown with the change, 50 mM K-MOPS pH 6.5, 50 mM KCl, 2.5 mM MgCl2, 1 mM GTP, 3 µM BSA, read off a plot
T2 chain: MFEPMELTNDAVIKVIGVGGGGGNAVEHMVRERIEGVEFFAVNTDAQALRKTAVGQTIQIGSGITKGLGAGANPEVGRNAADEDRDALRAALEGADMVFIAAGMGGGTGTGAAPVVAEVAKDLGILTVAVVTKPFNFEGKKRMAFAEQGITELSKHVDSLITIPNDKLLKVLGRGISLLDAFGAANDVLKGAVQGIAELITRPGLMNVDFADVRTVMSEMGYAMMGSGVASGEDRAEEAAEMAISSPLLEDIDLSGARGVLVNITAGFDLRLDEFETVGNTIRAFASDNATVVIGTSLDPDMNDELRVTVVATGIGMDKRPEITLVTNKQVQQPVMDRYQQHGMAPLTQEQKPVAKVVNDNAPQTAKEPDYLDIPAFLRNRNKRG

- response (% ZapD in pellet) ([1]; 5 µM FtsZ with ZapD at 1:0.2, parent: est. 62): 17
- response (% ZapD in pellet) ([1]; 5 µM FtsZ with ZapD at 1:1, parent: est. 55): 23
- response (% FtsZ in pellet) ([2]; 5 µM FtsZ with ZapD at 1:0.2, parent: est. 44): 34
- response (% FtsZ in pellet) ([2]; 5 µM FtsZ with ZapD at 1:1, parent: est. 73): 36
- response (% FtsZ in pellet) ([2]; 5 µM FtsZ, no ZapD, parent: est. 26): 31
B1: FtsZ (purified, WT), P0A9A6 CTV KQAD (380-383) replaced by NRNKRG (protein)
chain: MFEPMELTNDAVIKVIGVGGGGGNAVEHMVRERIEGVEFFAVNTDAQALRKTAVGQTIQIGSGITKGLGAGANPEVGRNAADEDRDALRAALEGADMVFIAAGMGGGTGTGAAPVVAEVAKDLGILTVAVVTKPFNFEGKKRMAFAEQGITELSKHVDSLITIPNDKLLKVLGRGISLLDAFGAANDVLKGAVQGIAELITRPGLMNVDFADVRTVMSEMGYAMMGSGVASGEDRAEEAAEMAISSPLLEDIDLSGARGVLVNITAGFDLRLDEFETVGNTIRAFASDNATVVIGTSLDPDMNDELRVTVVATGIGMDKRPEITLVTNKQVQQPVMDRYQQHGMAPLTQEQKPVAKVVNDNAPQTAKEPDYLDIPAFLRNRNKRG
